{"source": "patent US20260008856A1", "about": "“METHODS OF TREATING DISEASE USING ANTI-IL1RAP ANTIBODIES AND ANTIBODY DRUG CONJUGATES” (Bluefin Biomedicine, Inc., priority 2022, published 2026)", "molecules": {"B1": {"name": "37E10_15B5: human anti-IL1RAP antibody BFB759 (i.e., 37E10_15B5), VH SEQ ID NO: 64, VL SEQ ID NO: 68 (antibody, V domains shown)", "VH": "QVQLVESGGGVVQPGRSLRLSCAASGFTFRSHGMHWVRQAPGKGLEWVAVIWYDGSSEYYADSVKGRFTISRDNSKNTLYLQMNSLRAEDTAVYYCARENVYGSGWFFDYWGQGTLVTVSS", "VL": "EIVMTQSPATLSVSPGERASLSCRASQSVGSNLAWYQQRPGQAPRLLIFGASTRATGIPARFSGSRSGTEFTLTISSLQSEDFALYYCQQYNNWPPWTFGQGTKLEIK"}}, "key": {"EOL-1": {"system": "EOL-1", "test": "Flow cytometry binding to endogenous cell line EOL-1", "type": "cell-based, human", "set-up": "key to binding to EOL-1 by flow cytometry: (−): No binding; (+): Weak binding; (++): Moderate binding; (+++): Strong binding", "conditions": "primary antibody 1 ug/ml", "method_in_brief": "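Live cells stained on ice for 30 minutes with primary antibody at 1 ug/ml in cold PBS/0.5% BSA, then washed and detected with Alexa Fluor 488 anti-human IgG (1:1000). Binding read by flow cytometry on endogenous IL1RAP-positive lines.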"}, "recombinant human IL1RAP": {"target": "T1, recombinant human IL1RAP (Homo sapiens, UniProt Q9NPH3)", "T1 construct": "MBP-IL1RAP(S21-T367)-; 8xHis (C); made in house; host or cells: CHO (ExpiCHO transient expression)", "test": "Binding competition binning on Octet", "conditions": "Protein A biosensors", "method_in_brief": "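Protein A biosensors loaded with first antibody (10 ug/mL, 5 min), blocked with irrelevant antibody (100 ug/mL, 5 min). Then exposed to recombinant human IL1RAP (1 min) and a second antibody (1 min). Octet interferometry signal increase indicates non-competing pairs; antibodies assigned to bins.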"}, "IL-1β signaling": {"system": "IL-1β signaling", "test": "IL-1 signaling reporter cell assay (HEK-Blue IL-1β cells), IL-1β", "type": "cell-based", "experimental": "(§1) HEK-Blue IL-1β cells (Invivogen, CA) were harvested and plated in technical duplicates at a density of 50,000 cells per well in a 96-well plate. IL1RAP antibodies, or a corresponding human IgG1 control antibody was added to the wells in a concentration range of […]. After incubating cells with antibodies for 30 minutes, IL-1β was added to a final concentration of 0.5 ng/ml, and the plate was incubated overnight. To examine whether any of the antibodies were able to induce IL-1R activation in the absence of IL-1β, samples were incubated with 10 μg/mL antibody without addition of the ligand. The following day, substrate was added to the supernatants, and samples were analyzed for absorbance at 620 nm."}, "IL-1α signaling": {"system": "IL-1α signaling", "test": "IL-1 signaling reporter cell assay, IL-1α", "type": "cell-based", "conditions": "serial dilution of antibody", "experimental": "as §1\nIn addition, serial dilution of IL1RAP antibodies was performed to determine EC50 against IL-1β and IL-1α (FIGS. 6B and 6C). Many of these antibodies, including 37E10_15B5 and 44E5_15C5 can block IL-1β and IL-1α signaling with subnanomolar EC50."}, "[1]": {"system": "TARC expression in PBMCs stimulated with HDM and IL-4", "test": "TARC in PBMCs treated by HDM and hIL-4", "type": "cell-based, human", "experimental": "0.2 million PBMCs in 100 ul medium (RPMI1640, 10% heat-inactivated FBS) were added to each well of 96 well cell culture plate. BFB759 at multiple concentrations in 50 ul medium was added to the wells. The cells were incubated in the incubator for 45 min. Then, 50 ul HDM solution (final concentration 10 ug/ml) was added to the wells. After 7 days incubation, the supernatant was transferred to a new 96 well plate, and used in TARC ELISA right away, or frozen in −80 C freezer for ELISA later. For the combination studies of BFB759 with other drugs, the single agent or combination of drugs were added to the PBMCs, incubated for 45 min, then HDM solution, or HDM and IL-4 or IL-13 solution were added to the wells. The assay was incubated for 7 days, and the supernatant was harvested for TARC ELISA.\nDupilumab is approved for treatment of AD (Atopic Dermatitis). It inhibits IL-4/13 signaling by blocking their binding to IL-4Ra. […] (FIG. 15)\nIn the data shown in FIG. 15, HDM was used at 10 ug/ml, IL-4 was used at […], antibodies were at three different concentrations as shown in the graph. Data shown are mean±s.d."}, "[2]": {"system": "normal human dermal fibroblasts (NHDF)", "test": "IL-6 and IL-8 production in NHDF stimulated with cytokine combo incl. TNF-α", "type": "cell-based", "conditions": "cytokine combo IL-1α/β, IL-36α/β/γ, antibodies 0-20 ug/ml, BFB759 0.5 ug/ml in combination", "experimental": "Human NHDF cells were plated on 96-well, flat-bottom plates at 4,000 cells/well. […] For combination therapy, 0.5 ug/ml BFB759 was mixed with adalimumab or isotype control antibody at increasing concentrations (0-20 ug/ml, 5-fold dilution) and incubated with cells in duplicate for 45 minutes, prior to the addition of cytokine combo. The plates were then incubated overnight at 37° C., 5% CO2. 24 hours after treatment, supernatants were transferred and assayed for IL-6 and IL-8, as per manufacture's protocol (R&D Systems; Human IL-6 DuoSet ELISA, Human IL-8/CXCL8 DuoSet ELISA). The raw assay data were analyzed using GraphPad Prism 9 software to perform a non-linear regression."}}}
{"molecule": "B1", "values": [{"measurement": "binding to EOL-1 by flow cytometry", "setting": "EOL-1", "result": "(+++)"}, {"measurement": "competition for binding, bin (2)", "setting": "recombinant human IL1RAP", "result": "competed with each other"}, {"measurement": "inhibition of IL1R1 / IL-1 signaling", "setting": "IL-1β signaling; HEK-Blue IL-1β cells, antibody 1-10 pg/ml, IL-1β 0.5 ng/ml", "result": "potent inhibition"}, {"measurement": "EC50 against IL-1β", "setting": "IL-1β signaling; serial dilution of antibody, reporter assay", "result": "subnanomolar"}, {"measurement": "EC50 against IL-1α", "setting": "IL-1α signaling", "result": "subnanomolar"}, {"measurement": "inhibition of TARC expression in the HDM and IL-4 model", "setting": "[1]; 1 or 0.1 ug/ml of BFB759, alone or combined with dupilumab", "result": "minimal inhibition"}, {"measurement": "inhibition of TARC expression in the HDM and IL-4 model", "setting": "[1]; HDM 10 ug/ml, IL-4 750 ug/ml, three antibody concentrations", "result": "partially inhibits"}, {"measurement": "IL-6 production", "setting": "[2]", "result": "dose-dependent decrease"}, {"measurement": "IL-8 production", "setting": "[2]", "result": "dose-dependent decrease"}]}
